Among the data in patent US20220339270A1 are anti-eTau ELISA antibody concentration and OD450 values, retold here.

Experiment [1] concerns the target extracellular tau in the form of paired helical filaments (ePHF tau) (UniProt P10636). Description: anti-eTau ELISA of ExpiCHO supernatant, concentration of tau-binding antibody. (In general: In an ELISA, binding on a coated surface is turned into a signal by an enzyme label.)
The target in experiment [2] is wild-type tau (Tau441) (human) (UniProt P10636). The experiment is described as follows: ELISA, Tau441 on plate; antibody at […].
wild-type tau (Tau441) (human), sequence (P10636 other isoform, or with tags, fused parts or gaps limits assumed): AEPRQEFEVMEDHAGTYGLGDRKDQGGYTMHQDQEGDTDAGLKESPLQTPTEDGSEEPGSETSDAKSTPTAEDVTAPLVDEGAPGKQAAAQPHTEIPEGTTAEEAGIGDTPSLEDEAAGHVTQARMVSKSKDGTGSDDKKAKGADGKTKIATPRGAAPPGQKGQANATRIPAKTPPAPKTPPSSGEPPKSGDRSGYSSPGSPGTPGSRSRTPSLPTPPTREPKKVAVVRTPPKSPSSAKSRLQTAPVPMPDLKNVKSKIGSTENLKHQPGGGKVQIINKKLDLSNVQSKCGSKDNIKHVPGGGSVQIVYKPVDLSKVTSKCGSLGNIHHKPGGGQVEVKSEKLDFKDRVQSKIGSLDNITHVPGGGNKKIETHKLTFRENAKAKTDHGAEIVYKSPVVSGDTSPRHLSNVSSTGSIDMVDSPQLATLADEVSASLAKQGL
Experiment [3] has the same target. Description: ELISA, Tau441 on plate; antibody at 4.1 ng/mL.
For experiment [4] the target is unchanged. Description: ELISA, Tau441 on plate; antibody at 12.3 ng/mL.
Experiment [5] shares this target. Description: ELISA, Tau441 on plate; antibody at 37.0 ng/mL.
Experiment [6] shares this target. Description: ELISA, Tau441 on plate; antibody at 111.1 ng/mL.
For experiment [7] the target is unchanged. Description: ELISA, Tau441 on plate; antibody at 333.3 ng/mL.
Experiment [8] has the same target. The experiment is described as follows: ELISA, Tau441 on plate; antibody at 1000.0 ng/mL.
Experiment [9] has the same target. Description: ELISA, Tau441 on plate; antibody at 0.0 ng/mL [sic].

extracellular tau in the form of paired helical filaments (ePHF tau), sequence (P10636 other isoform, or with tags, fused parts or gaps limits assumed): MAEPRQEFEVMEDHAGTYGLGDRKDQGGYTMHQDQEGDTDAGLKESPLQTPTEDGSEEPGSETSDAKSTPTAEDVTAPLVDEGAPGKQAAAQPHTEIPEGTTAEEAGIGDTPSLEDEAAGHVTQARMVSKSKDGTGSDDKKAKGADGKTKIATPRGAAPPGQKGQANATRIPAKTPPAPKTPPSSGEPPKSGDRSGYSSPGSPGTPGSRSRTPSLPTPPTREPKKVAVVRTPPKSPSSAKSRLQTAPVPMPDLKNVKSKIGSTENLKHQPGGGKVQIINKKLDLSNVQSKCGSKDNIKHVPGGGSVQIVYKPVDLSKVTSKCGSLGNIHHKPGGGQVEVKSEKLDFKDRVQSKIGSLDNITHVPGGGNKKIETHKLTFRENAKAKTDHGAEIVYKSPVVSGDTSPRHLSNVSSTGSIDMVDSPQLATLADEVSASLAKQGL

With “PHF1 antibody expressed from viral genome construct TAU_ITR70 (PHF-1 LF2AH) (antibody; other documents disagree on this pair)”, the anti-eTau ELISA antibody concentration in experiment [1] worked out at 4280 ng/mL.
On the same count and under the same terms, for “PHF1 antibody expressed from viral genome construct TAU_ITR85 (PHF-1 HF.F2AL) (antibody; other documents disagree on this pair)” the value was 18.8 ng/mL.
In experiment [1], “PHF1 antibody expressed from viral genome construct TAU_ITR86 (PHF-1 LF2AH) (antibody; other documents disagree on this pair)” had an anti-eTau ELISA antibody concentration of 1530 ng/mL.
“Tau-13 (anti-tau, 20-35; BioLegend cat #835201) (antibody)”: the OD450 was found to be 0.2 OD450 in experiment [2]; 0.5 OD450 in experiment [3]; 1.2 OD450 in [4]; 2.3 OD450 in [5]; 3.1 OD450 in [6]; 3.2 OD450 in [7]. For the same substance, the OD450 in [8] was found to be 3.2 OD450; in [9], 0 OD450.
Take “PHF-6 (anti-tau phospho Th231; BioLegend cat #828901) (antibody)”: the OD450 in experiment [2] stood at 0.1 OD450; in experiment [3] it was 0 OD450; in experiment [4], 0 OD450; in experiment [5], 0 OD450; in [6], 0 OD450; in [7], 0 OD450. Further, the OD450 in experiment [8] is 0.1 OD450; in experiment [9], 0 OD450.
In the case of “Tau12 (anti-tau, 6-18; BioLegend cat #806501) (antibody)”, the OD450 in [2] stood at 0.4 OD450; in experiment [3], 0.9 OD450; in [4], 2 OD450; in experiment [5], 3.1 OD450; in [6], 3.3 OD450; in [7] it was 3.3 OD450. In addition, the OD450 in [8] was determined as 3.3 OD450; in experiment [9], 0 OD450.
“PHF-13 (anti-tau phospho Ser396; BioLegend cat #829001) (antibody)”: the OD450 in experiment [2] is 0 OD450; in [3], 0 OD450; in experiment [4], 0.1 OD450; in experiment [5], 0 OD450; in experiment [6], 0.1 OD450; in experiment [7], 0.1 OD450. Besides, the OD450 is 0.1 OD450 in experiment [8] and 0 OD450 in [9].
